From PMC3299833

Legend:
[1] = target: E. coli expressed recombinant PKM2 (rPKM2) (human) (UniProt P14618); experiment: SEC
[2] = target: Pyruvate kinase isoform M2 (PKM2), endogenous (human (endogenous in SW620 and SW480)) (UniProt P14618); experiment: SEC

Pyruvate kinase isoform M2 (PKM2), endogenous, P14618 1-531 (enzyme; other documents disagree on this pair), sequence (P14618 whole entry, canonical isoform): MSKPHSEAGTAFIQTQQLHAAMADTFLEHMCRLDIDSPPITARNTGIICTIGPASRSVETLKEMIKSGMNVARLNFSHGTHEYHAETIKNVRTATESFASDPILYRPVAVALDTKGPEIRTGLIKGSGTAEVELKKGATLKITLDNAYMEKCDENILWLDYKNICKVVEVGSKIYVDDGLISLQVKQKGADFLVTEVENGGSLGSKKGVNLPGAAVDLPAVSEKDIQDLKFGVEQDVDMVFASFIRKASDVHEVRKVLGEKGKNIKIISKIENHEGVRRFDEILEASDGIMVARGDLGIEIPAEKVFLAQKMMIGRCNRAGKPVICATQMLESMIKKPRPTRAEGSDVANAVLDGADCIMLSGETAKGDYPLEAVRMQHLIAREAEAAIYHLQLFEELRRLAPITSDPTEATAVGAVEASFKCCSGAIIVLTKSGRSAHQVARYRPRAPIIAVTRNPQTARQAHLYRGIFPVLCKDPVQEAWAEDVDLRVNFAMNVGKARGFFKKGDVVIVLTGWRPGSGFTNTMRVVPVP
E. coli expressed recombinant PKM2 (rPKM2), P14618 1-531 (enzyme; other documents disagree on this pair), sequence (P14618 whole entry): as the sequence (P14618 whole entry, canonical isoform) above

| stoichiometry N [1] | stoichiometry N [2] | Substance |
| --- | --- | --- |
| 2 |  | E. coli expressed recombinant PKM2 (rPKM2), P14618 1-531 (enzyme; other documents disagree on this pair) |
|  | 2 | Pyruvate kinase isoform M2 (PKM2), endogenous, P14618 1-531 (enzyme; other documents disagree on this pair) |
